Data from patent publication US20220267412A1.

Target: porcine pancreatic elastase (porcine) (UniProt P00772)
Test: cell-based or functional assay

Sequence of porcine pancreatic elastase (porcine) (P00772 27-266): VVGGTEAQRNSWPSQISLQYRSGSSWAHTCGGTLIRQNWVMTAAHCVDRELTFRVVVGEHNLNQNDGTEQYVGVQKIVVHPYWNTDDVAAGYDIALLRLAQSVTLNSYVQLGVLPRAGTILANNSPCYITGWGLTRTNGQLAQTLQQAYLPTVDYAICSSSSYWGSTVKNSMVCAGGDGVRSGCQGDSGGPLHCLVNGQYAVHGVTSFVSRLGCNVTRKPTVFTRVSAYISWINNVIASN

human serpin B1 C344S variant (from UniProt P30740 1-379)
amount of purified protein to fully inhibit PPE (typically 160 nM, 200 uL, +40 mM 2-ME): 13 µg
